Measured values as given in the supplement of paper PMC7877785.
± gives the uncertainty stated by the source.

Assay: self-splicing fitness, log relative to wild type (ln ratio); higher = more splicing; Tetrahymena group I intron in knt gene, E. coli kanamycin selection, DiMSum; sequences stand for … in CUCUCU…GGAGGGAAAAGUUAUCAGGCAUGCACCUGGUAGCUAGUCUUUAAACCAAUAGAUUGCAUCGGUUUAAAAGGCAAGACCGUCAAAUUGCGGGAAAGGGGUCAACAGCCGUUCAGUACCAAGUCUCAGGGGAAACUUUGAGAUGGCCUUGCAAAGGGUAUGGUAAUAAGCUGACGGACAUGGUCCUAACCACGCAGCCAAGUCCUAAGUCAACAGAUCUUCUGUUGAUAUGGAUGCAGUUCACAGACUAAAUGUCGGUCGGGGAAGAUGUAUUCUUCUCAUAAGAUAUAGUCGGACCUCUCCUUAAUGGGAGCUAGCGGAUGAAGUGAUGCAACACUGGAGCCGCUGGGAACUAAUUUGUAUGCGAAAGUAUAUUGAUUAGUUUUGGAGUACUCGUGGUCG
How it was run: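 Fitness was computed with DiMSum as the error-weighted combination of replicate fold changes, kanamycin versus none, each normalised to wild type. The library randomised all eight intron nucleotides of the P1ex region, with the intron placed in the knt kanamycin-resistance gene on pET-22b(+) in E. coli BL21(DE3). Six replicate transformations were grown overnight at 37°C or 30°C on LB agar with or without 25 μg/mL kanamycin, plus 100 μg/mL carbenicillin, 50 μM IPTG and 0.2% rhamnose. Pooled colonies were amplicon-sequenced on an Illumina HiSeq 2500.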

## CUGGAGCAAUAUUACGGGCU
30 °C
  self-splicing fitness (ln): -3.05 ± 0.37
37 °C
  self-splicing fitness (ln): -2.46 ± 0.49

## AAUGAGCAAUAUUACGCACC
37 °C
  self-splicing fitness (ln): -1.2 ± 0.48

## AUAGAGCAAUAUUACGUCCA
30 °C
  self-splicing fitness (ln): -2.35 ± 0.21
37 °C
  self-splicing fitness (ln): -0.672 ± 0.2

## GGAAAGCAAUAUUACGACCU
30 °C
  self-splicing fitness (ln): -0.756 ± 0.15
37 °C
  self-splicing fitness (ln): -0.363 ± 0.18

## UUAAAGCAAUAUUACGCUUU
30 °C
  self-splicing fitness (ln): -4.36 ± 0.35
37 °C
  self-splicing fitness (ln): -1.94 ± 0.24

## GUUGAGCAAUAUUACGCUUA
30 °C
  self-splicing fitness (ln): -2.55 ± 0.21
37 °C
  self-splicing fitness (ln): -0.787 ± 0.17

## UAGAAGCAAUAUUACGAUCA
30 °C
  self-splicing fitness (ln): -0.731 ± 0.064
37 °C
  self-splicing fitness (ln): 0.138 ± 0.086

## ACCAAGCAAUAUUACGGCGG
30 °C
  self-splicing fitness (ln): -1.04 ± 0.083
37 °C
  self-splicing fitness (ln): -0.733 ± 0.11

## CACUAGCAAUAUUACGUUGG
30 °C
  self-splicing fitness (ln): -2.27 ± 0.11
37 °C
  self-splicing fitness (ln): -2.03 ± 0.16

## GGACAGCAAUAUUACGUGGG
30 °C
  self-splicing fitness (ln): -2.49 ± 0.12
37 °C
  self-splicing fitness (ln): -2.28 ± 0.12

## CUCAAGCAAUAUUACGGAGG
30 °C
  self-splicing fitness (ln): -1.53 ± 0.098
37 °C
  self-splicing fitness (ln): -0.576 ± 0.087

## UAUUAGCAAUAUUACGGAAG
30 °C
  self-splicing fitness (ln): -2.63 ± 0.31
37 °C
  self-splicing fitness (ln): -1.9 ± 0.25

## GACUAGCAAUAUUACGUGAG
30 °C
  self-splicing fitness (ln): -2.07 ± 0.1
37 °C
  self-splicing fitness (ln): -1.54 ± 0.14

## GCAUAGCAAUAUUACGGUGG
30 °C
  self-splicing fitness (ln): -2.55 ± 0.15
37 °C
  self-splicing fitness (ln): -1.31 ± 0.13

## GCAUAGCAAUAUUACGUAUC
30 °C
  self-splicing fitness (ln): -3.24 ± 0.21
37 °C
  self-splicing fitness (ln): -2.49 ± 0.22

## ACUCAGCAAUAUUACGCAUC
30 °C
  self-splicing fitness (ln): -2.72 ± 0.15
37 °C
  self-splicing fitness (ln): -1.48 ± 0.11

## CGGCAGCAAUAUUACGGCCA
30 °C
  self-splicing fitness (ln): -0.0175 ± 0.12
37 °C
  self-splicing fitness (ln): 0.462 ± 0.16

## GGCUAGCAAUAUUACGAUCG
30 °C
  self-splicing fitness (ln): -0.651 ± 0.12
37 °C
  self-splicing fitness (ln): -0.58 ± 0.15

## CAGUAGCAAUAUUACGCUAG
30 °C
  self-splicing fitness (ln): -2.14 ± 0.1
37 °C
  self-splicing fitness (ln): -1.34 ± 0.1

## UAUAAGCAAUAUUACGAGUC
30 °C
  self-splicing fitness (ln): -1.69 ± 0.32

## CUACAGCAAUAUUACGGGAU
30 °C
  self-splicing fitness (ln): -2.74 ± 0.15
37 °C
  self-splicing fitness (ln): -2.99 ± 0.27

## UUCUAGCAAUAUUACGGGGA
30 °C
  self-splicing fitness (ln): -0.859 ± 0.21
37 °C
  self-splicing fitness (ln): -0.995 ± 0.21

## UUAUAGCAAUAUUACGCGUU
30 °C
  self-splicing fitness (ln): -3.58 ± 0.16
37 °C
  self-splicing fitness (ln): -2.16 ± 0.17

## AUAAAGCAAUAUUACGCCAU
30 °C
  self-splicing fitness (ln): -0.694 ± 0.095
37 °C
  self-splicing fitness (ln): -0.176 ± 0.14

## CCUAAGCAAUAUUACGACGG
30 °C
  self-splicing fitness (ln): -3.49 ± 0.19
37 °C
  self-splicing fitness (ln): -2.24 ± 0.24

## GUGCAGCAAUAUUACGAUUU
30 °C
  self-splicing fitness (ln): -1.06 ± 0.1
37 °C
  self-splicing fitness (ln): -0.209 ± 0.12

## GUCCAGCAAUAUUACGCAAG
30 °C
  self-splicing fitness (ln): -1.32 ± 0.12
37 °C
  self-splicing fitness (ln): -1.28 ± 0.14

## AUUAAGCAAUAUUACGCAUU
30 °C
  self-splicing fitness (ln): -2.35 ± 0.14
37 °C
  self-splicing fitness (ln): -0.664 ± 0.13

## CGCCAGCAAUAUUACGACUC
30 °C
  self-splicing fitness (ln): -3.02 ± 0.22
37 °C
  self-splicing fitness (ln): -2.21 ± 0.25

## ACUUAGCAAUAUUACGUUGA
30 °C
  self-splicing fitness (ln): -4.69 ± 0.36
37 °C
  self-splicing fitness (ln): -2.06 ± 0.12

## CAGGAGCAAUAUUACGACUC
30 °C
  self-splicing fitness (ln): -2.74 ± 0.11
37 °C
  self-splicing fitness (ln): -2.14 ± 0.15

## AUCUAGCAAUAUUACGUAAU
30 °C
  self-splicing fitness (ln): -1.28 ± 0.098
37 °C
  self-splicing fitness (ln): -1.37 ± 0.12

## CUACAGCAAUAUUACGAGGG
30 °C
  self-splicing fitness (ln): -3.38 ± 0.19
37 °C
  self-splicing fitness (ln): -2.59 ± 0.2

## GCGCAGCAAUAUUACGGGAA
30 °C
  self-splicing fitness (ln): -1.92 ± 0.086
37 °C
  self-splicing fitness (ln): -0.883 ± 0.066

## CAGGAGCAAUAUUACGAGCG
30 °C
  self-splicing fitness (ln): -1.04 ± 0.13
37 °C
  self-splicing fitness (ln): 0.24 ± 0.11

## AUCAAGCAAUAUUACGUCCA
30 °C
  self-splicing fitness (ln): -1.23 ± 0.09
37 °C
  self-splicing fitness (ln): -0.319 ± 0.11

## GCACAGCAAUAUUACGCAAC
30 °C
  self-splicing fitness (ln): -2.31 ± 0.17
37 °C
  self-splicing fitness (ln): -1.03 ± 0.19

## GAACAGCAAUAUUACGCAGU
30 °C
  self-splicing fitness (ln): -3.37 ± 0.11
37 °C
  self-splicing fitness (ln): -2.5 ± 0.13

## UUAGAGCAAUAUUACGGGUC
30 °C
  self-splicing fitness (ln): -3.07 ± 0.18
37 °C
  self-splicing fitness (ln): -1.69 ± 0.22

## UAGGAGCAAUAUUACGAGCC
30 °C
  self-splicing fitness (ln): -3.1 ± 0.3
37 °C
  self-splicing fitness (ln): -2.82 ± 0.47

## AGCGAGCAAUAUUACGGACU
30 °C
  self-splicing fitness (ln): -1.24 ± 0.15
37 °C
  self-splicing fitness (ln): 0.232 ± 0.16

## CCACAGCAAUAUUACGAAAU
30 °C
  self-splicing fitness (ln): -4.25 ± 0.24
37 °C
  self-splicing fitness (ln): -2.02 ± 0.17
